The target of one data set is T1, Mus musculus STING (Mus musculus, UniProt Q3TBT3).
T1 construct: 6xHis-SUMO2 (N, cleaved yes); made in house; host or cells: E. coli BL21 CodonPlus (DE3)-RIL
T1 sequence (Q3TBT3 138-378 limits assumed): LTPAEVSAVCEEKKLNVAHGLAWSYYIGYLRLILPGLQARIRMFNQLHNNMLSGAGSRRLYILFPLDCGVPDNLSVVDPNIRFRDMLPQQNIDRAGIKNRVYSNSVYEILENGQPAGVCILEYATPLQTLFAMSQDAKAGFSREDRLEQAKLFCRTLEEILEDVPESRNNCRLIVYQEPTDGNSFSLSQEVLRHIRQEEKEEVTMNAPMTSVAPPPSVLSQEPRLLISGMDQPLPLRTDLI
As to the kind of experiment: Gel shift assay, radiolabeled nucleotide binding to STING (native PAGE). The settings on record: radiolabeled nucleotide, 0, 4, 20, 100 μM protein. (In EMSA bound probe runs differently from free probe, usually more slowly.)

Another data set deals with T2, RECON (Mus musculus, UniProt Q8VC28).
T2 construct: 6xHis-SUMO2 (N, cleaved yes); made in house; host or cells: E. coli BL21 CodonPlus (DE3)-RIL
T2 sequence (Q8VC28 1-323): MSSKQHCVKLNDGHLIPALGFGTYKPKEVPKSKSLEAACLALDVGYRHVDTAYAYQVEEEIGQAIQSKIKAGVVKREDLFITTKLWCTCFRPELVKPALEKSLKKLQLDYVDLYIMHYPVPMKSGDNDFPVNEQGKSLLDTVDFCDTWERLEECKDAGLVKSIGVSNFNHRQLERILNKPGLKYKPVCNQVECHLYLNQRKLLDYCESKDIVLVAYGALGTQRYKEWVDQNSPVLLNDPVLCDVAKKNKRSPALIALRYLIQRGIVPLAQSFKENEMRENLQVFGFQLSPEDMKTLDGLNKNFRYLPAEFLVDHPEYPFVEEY
As to the kind of experiment: Gel shift assay, radiolabeled nucleotide binding to RECON (native PAGE). Particulars: radiolabeled nucleotide, 0, 4, 20, 100 μM protein.

The next data set addresses T3, CapE (Escherichia coli, UniProt Q6XGD4).
T3 construct: made in house; host or cells: E. coli BL21 CodonPlus (DE3)-RIL
Nature of the data set: Phospholipase assay (EnzChek Phospholipase A1), CapE. The format is biochemical, E. coli. Particulars: 0.1, 1, and 10-fold molar ratios of nucleotide to phospholipase. The protocol:
Patatin-like lipases were assayed as previously described (Gaspar & Machner (2014) Proc. Natl. Acad. Sci. U.S.A. 111:4560-4565). Briefly, CapV and CapE were produced recombinantly and catalytic activity was measured using the EnzChek® Phospholipase A1 Assay Kit (Invitrogen) according to the manufacturer's instructions. […] Assays were monitored fluorometrically Ex=460 nm/Em=515 nm, for 60 min at ˜90 s intervals at room temperature using a Biotek Synergy plate reader. Slope of each reaction in the linear range was used to calculate activity (Linear regression/straight line analysis, Prism 7.0c). A PLA1 standard curve from 20-0.02 U was used to interpolate phospholipase activity. Emission was monitored at a gain of 100 and/or 50 in order to extend the linear range of the assay.

A short description of data set [1]: Second messenger synthesis assay ([α-32P] NTPs, TLC, MS/NMR of products). The data set is classed as biochemical. Particulars: for nucleotide product synthesized by the enzyme: purified enzyme with [α-32P] NTPs, TLC, products confirmed by MS/NMR. The procedure: Recombinant, candidate nucleotidyltransferase reactions combined 4 μL of 5× reaction buffer (250 mM CAPSO pH 9.4, […], 25 mM Mg (OAc) 2, 5 mM DTT), 2 μL of 10× NTPs, 1 uL [α-^32P] NTPs (˜1 uCi), 1 μL of candidate enzyme in storage buffer (˜20 μM), and a remaining volume of nuclease free water. The final reactions (50 mM CAPSO pH 9.4, 50 mM KCl, 5 mM Mg (OAc) 2, 1 mM DTT, ≤5% glycerol, 25-250 μM individual NTPs, trace amounts of [(-^32P] NTP, 1 μM enzyme) were started with addition of enzyme. Where indicated, pH was altered by replacing CAPSO buffer with appropriate buffer from “StockOptions pH Buffer Kit” (Hampton Research). When appropriate, Mg^2+ was replaced with an equimolar concentration of Mn^2+(MnCl2). cGAS reactions were always carried out with Tris at pH 7.5 and supplemented with 1 μM ISD45 dsDNA (Stetson & Medzhitov. (2006) Immunity 24:93-103). Reactions were carried out with 25 μM of each indicated NTP for FIGS. 1B, 3D, 8B, 8C, and 8D and for FIGS. 2C, 2G-2I, 5B, 5C, 10A-10D, 11A, 11B, and 13D. Reactions in all other figures were carried out with 250 μM NTP. The NTP/[α-^32P] NTPs in FIG. 1B are cGAS (ATP, GTP/[α-^32P] GTP), DncV (ATP, GTP/[α-^32P] ATP), DisA (ATP/[α-^32P] ATP), WspR (GTP/[xx-^32P] GTP), and CdnE (NTP/[{-^32P] NTP). P1 nuclease treated reactions in FIG. 1C and FIG. 11B are cGAS (ATP, GTP/[α-^32P] ATP), DncV (ATP, GTP/[α-^32P] GTP), CdnE (ATP, UTP/[<- ^32P] ATP), and Lp-CdnE02 (CTP, UTP/ [α-^32P] UTP) . Where indicated, nonhydrolyzable nucleotides [Ap (c) pp, Gp (c) pp, Cp (c) pp, or Up (n) pp (Jena)] were used at 25 μM.
Reactions were incubated for 2 h at 37° C. prior to analysis unless otherwise stated. Reactions were stopped by addition of 5 U of alkaline phosphatase (New England Biolabs) which removed triphosphates on remaining NTPs and converted the remaining nucleotide [α-^32P] to ^32Pi and allowed visualization of cyclic nucleotides. After a >20 min incubation, […] (PEI-cellulose) or 1 uL (silica) of the reaction was spotted 1.5 cm from the bottom of the TLC plate, spaced 0.8 cm apart. 20 cm×20 cm F-coated PEI-cellulose TLCs (Millipore) were developed in 1.5 M KH2PO4 (pH 3.8) until the buffer front reacted ˜1 cm from the top; 20 cm×10 cm F-coated silica HP-TLC plates (Millipore) were developed in 11:7:2 1-propanol: NH4OH: H2O in a chemical fume hood for 1 hour. Plates were dried and exposed to phosphorscreen prior to detection by Typhoon™ Trio Variable Mode Imager system (GE Healthcare). All TLC data are representative of ≥3 independent experiments, with the exception of the biochemical screen which represents ≥2 independent experiments.
Cyclic nucleotides were produced in large scale using previously described methods (Sureka et al. (2014) Cell 158:1389-1401) with the following changes. Small-scale second messenger synthesis assays were scaled up to […] reactions with final conditions of 50 mM CAPSO pH 9.4, 12.5-50 mM KCl, 5-20 mM Mg (OAc) 2, 1 mM DTT, ≤5% glycerol, 250 μM individual NTPs, and 1 μM enzyme. A 20 μL aliquot of the larger reaction was removed and [cx-^32P] NTP were added to follow reaction progress. Reactions were incubated for 24 hours at which time 5 U of CIP/mL of reaction was added and the reaction was further incubated for 2-24 hours. Reactions were heat inactivated at 65° C. for 30 min, diluted to a final salt concentration of 12.5 mM, and purified by anion exchange chromatography and FPLC (either 1 mL Q-Sepharose® column, or Mono Q 4.6/100 PE, GE Healthcare). The column was washed with water and 1 mL fractions were collected during a gradient elution with 2M ammonium acetate. Fractions harboring the appropriate product were identified by A260 and silica TLC, visualizing the nucleotide products by UV-shadowing, imaging using a handheld camera, and comparing migration to paired, radiolabeled reactions. Selected fractions were concentrated by evaporation and re-suspended in 30 μL of nuclease free water for MS. […]

“Also recorded” adds a separate entry of the source.

T3 sequence (Q6XGD4 whole entry): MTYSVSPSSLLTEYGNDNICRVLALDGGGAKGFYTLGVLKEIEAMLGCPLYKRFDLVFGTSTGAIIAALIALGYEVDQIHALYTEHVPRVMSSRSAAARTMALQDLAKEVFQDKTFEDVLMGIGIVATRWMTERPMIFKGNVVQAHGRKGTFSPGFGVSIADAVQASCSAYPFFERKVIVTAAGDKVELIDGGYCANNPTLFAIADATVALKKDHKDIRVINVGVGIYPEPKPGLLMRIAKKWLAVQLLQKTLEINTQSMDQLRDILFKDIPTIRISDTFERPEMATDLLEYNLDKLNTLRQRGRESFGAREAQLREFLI
Description for Mus musculus STING: (§1) Briefly, recombinant Mus musculus STING or RECON, at 4, 20, or 100 μM was incubated with radiolabeled nucleotide (≤1 μM final concentration) in gel shift buffer for final conditions of 50 mM Tris pH 7.5, 60 mM KCl, 5 mM Mg (OAc) 2, and 1 mM DTT. Experiments were prepared by combining 1 μL of [α-^32P] labeled nucleotide, 2 uL 5x gel shift buffer, 5 μL of nuclease free water, and started by addition of 2 μL of recombinant protein in storage buffer.
(§2) After 30 min of equilibration, bound and free nucleotide were separated by 6% native PAGE in 0.5x TBE buffer. Gels were dried, and exposed to phosphorscreen prior to detection by Typhoon Trio Variable Mode Imager system (GE Healthcare). Gel shifts were quantified with ImageQuant® 5.2 and the % bound nucleotide was calculated as a proportion of total bound and free nucleotide for each lane, after subtraction of background signal. Gel shift data is representative of ≥2 independent experiments.
Description for RECON: as §1, §2

In the case of `Nc1nc2c(ncn2[C@@H]2O[C@@H]3COP(=O)(O)O[C@H]4[C@@H](O)[C@H](n5cnc6c(=O)[nH]c(N)nc65)O[C@@H]4COP(=O)(O)O[C@H]3[C@H]2O)c(=O)[nH]1` [c-di-GMP, cyclic di-GMP, reference compound], the “recognition/binding of nucleotide by STING” value on Mus musculus STING is recorded as “detected by STING”. With `Nc1ncnc2c1ncn2[C@@H]1O[C@@H]2COP(=O)(O)O[C@H]3[C@@H](O)[C@H](n4cnc5c(N)ncnc54)O[C@@H]3COP(=O)(O)O[C@H]2[C@H]1O` [c-di-AMP, cyclic di-AMP, reference compound], at RECON, the “recognition/binding of nucleotide by RECON” value is “detected by both STING and RECON”. With `Nc1nc2c(ncn2[C@@H]2O[C@@H]3COP(=O)(O)O[C@H]4[C@@H](O)[C@H](n5cnc6c(N)ncnc65)O[C@@H]4COP(=O)(O)O[C@H]3[C@H]2O)c(=O)[nH]1` [3′3′ cGAMP, 3′-5′/3′-5′ cGAMP, reference compound], the “activation of CapE phospholipase activity” value at CapE was “exquisite specificity of CapE insulates this circuit from 3′3′ cGAMP”. On RECON, the “recognition/binding of nucleotide by RECON” value was “detected by both STING and RECON”.

B1: Ec-CdnD02: CD-NTase from Enterobacter cloacae, SEQ ID NO: 112 (protein, listed as Enterobacter cloacae)
chain: MELQPQFNEFLANIRPTDTQKEDWKSGARTLRERLKNFEPLKEIVVSTFLQGSIRRSTAIRPLGDKRPDVDIVVVTNLDHTRMSPTDAMDLFIPFLEKYYPGKWETQGRSFGITLSYVELDLVITAIPESGAEKSHLEQLYKSESVLTVNSLEEQTDWRLNKSWTPNTGWLSESNSAQVEDAPASEWKAHPLVLPDREKNEWGRTHPLAQIRWTAEKNRLCNGHYINLVRAVKWWRQQNSEDLPKYPKGYPLEHLIGNALDNGTTSMAQGLVQLMDTFLSRWAAIYNQKSKPWLSDHGVAEHDVMARLTAEDFCSFYEGIASAAEIARNALASEEPQESAQLWRQLFGSKFPLPGPQGGDRNGGFTTPSKPAEPQKTGRFA
For the molecule B1, the “nucleotide product synthesized by the enzyme” value (“nucleotide product synthesized” below) in data set [1] is “cyclic AMP-AMP-GMP (cAAG), a cyclic trinucleotide, is the major product”.

B2: CdnE: E. coli cGAS/DncV-like nucleotidyltransferase, SEQ ID NO: 166 (protein, listed as Escherichia coli)
chain: MGIPESQLDTWSHQGSIAQSASTYSIIKNALESANTKYHGKNFKVFLQGSYGNDTNIYAESDVDVVICLDDVYYSDLTQLSPEDKDAYDRAFVPATYSYTQFKQDVLEALTERFGSDVKVGDKAIVVAANGSRRKADVIASMQFRRYWKFKGHYDSQYDEGICFFNGAGERIANYPKQHSENLTLKHQASNKWLKPMVRVLKNLRSKLIADGKLKSGLAPSYYLEGLLYNVPNEKFGTSYADCFVNAMNWIQTEADKDKLVCANEQYYLLWEGTHTSWEKADAEAFIDAAIKMWNEW
As to B2, the “requirement of a cognate stimulus for enzyme activity” value in data set [1] is “constitutively active and does not require a cognate stimulus”. For the same molecule, the “nucleotide product synthesized” value was “cyclic UMP-AMP (cUMP-AMP)” in data set [1] and “robustly synthesized cUMP-AMP” in data set [1] (listed as wild-type CdnE).

B3: Rm-CdnE: CdnE homolog from Rhodothermus marinus, SEQ ID NO: 198 (protein, listed as Rhodothermus marinus)
chain: MPVPESQLERWSHQGATTTAKKTHESIRAALDRYKWPKGKPEVYLQGSYKNSTNIRGDSDVDVVVQLNSVFMNNLTAEQKRRFGFVKSDYTWNDFYSDVERALTDYYGASKVRRGRKTLKVETTYLPADVVVCIQYRKYPPNRKSEDDYIEGMTFYVPSEDRWVVNYPKLHYENGAAKNQQTNEWYKPTIRMFKNARTYLIEQGAPQDLAPSYFLECLLYNVPDSKFGGTFKDTFCSVINWLKRADLSKFRCQNGQDDLFGEFPEQWSEEKARRFLRYMDDLWTGWGQ
In the case of B3, in data set [1], the “nucleotide product synthesized” value is “synthesized cUMP-AMP”.

B4: Em-CdnE: CdnE from Elizabethkingia meningoseptica, SEQ ID NO: 201 (protein, listed as Elizabethkingia meningoseptica)
chain: MNFSEQQLINWSRPVSTTEDLKCQNAITQITAALRAKFGNRVTIFLQGSYRNNTNVRQNSDVDIVMRYDDAFYPDLQRLSESDKAIYNAQRTYSGYNFDELKADTEEALRNVFTTSVERKNKCIQVNGNSNRITADVIPCFVLKRFSTLQSVEAEGIKFYSDDNKEIISFPEQHYSNGTEKTNQTYRLYKRMVRILKVVNYRLIDDGEIADNLVSSFFIECLVYNVPNNQFISGNYTQTLRNVIVKIYEDMKNNADYTEVNRLFWLFSNRSPRTRQDALGFMQKCWNYLGYQ
B4: the “nucleotide product synthesized” value in data set [1] is “robustly synthesized cyclic dipurines; also recorded: synthesis of c-di-AMP, cGAMP, and c-di-GMP”.

The record behind these values is US12545900B2, “CGAS/DNCV-like nucleotidyltransferases and uses thereof” (Dana-Farber Cancer Institute, Inc., priority 2018, dated 2026).
